According to US20070190574A1, “Diagnostic method for identifying carriers of the Marburg I variant of factor VII-activating protease (FSAP) on the basis of differential modulation of FSAP activity” (DADE BEHRING MARBURG GmbH, priority 2005, published 2007):
“And” between values parts separate entries of the source, which are not always exact repeats. Equal values may be shown once.

Experiments:
Format in all cases: biochemical
FSAP MR I variant [1] = biological target: T1, FSAP MR I variant (Homo sapiens, UniProt Q14520, G534E); experiment: Change in amidolytic activity of FSAP (S-2288) on addition of activity modulator during the reaction, MR I sample; details: vmax before/after modulator added at about 60 min; aprotinin 2.95 KIU/ml, MAb about 60 μg/ml; six measurements; negative control 0.81
T1 construct: found for a plasma sample of a heterozygous carrier of the MR I polymorphism; from tissue
T1 sequence (Q14520 314-560 G534E limits assumed): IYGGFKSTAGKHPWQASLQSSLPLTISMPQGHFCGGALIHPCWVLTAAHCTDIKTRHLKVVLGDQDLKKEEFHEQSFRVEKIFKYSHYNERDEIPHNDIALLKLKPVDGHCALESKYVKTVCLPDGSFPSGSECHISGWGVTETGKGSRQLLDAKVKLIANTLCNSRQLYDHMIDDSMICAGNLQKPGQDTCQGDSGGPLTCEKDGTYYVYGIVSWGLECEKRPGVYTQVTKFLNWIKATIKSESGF
T1 sequence (Q14520 24-313 partner limits assumed): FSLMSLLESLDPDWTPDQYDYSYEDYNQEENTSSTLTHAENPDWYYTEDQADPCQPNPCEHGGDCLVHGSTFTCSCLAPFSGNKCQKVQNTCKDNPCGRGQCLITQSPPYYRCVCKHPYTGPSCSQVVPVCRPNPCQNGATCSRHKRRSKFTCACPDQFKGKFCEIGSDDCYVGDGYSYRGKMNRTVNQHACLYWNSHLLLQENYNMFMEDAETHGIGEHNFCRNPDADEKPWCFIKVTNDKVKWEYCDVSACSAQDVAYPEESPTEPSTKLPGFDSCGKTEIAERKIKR
Protocol: (§1) The microtiter plates used were the same as described in example 1. In each case 100 μl of a plasma sample to be determined were pipetted in a dilution of 1:15 in sample buffer (see example 1) into the wells. After incubation at +37° C. for one hour, unbound constituents were removed by washing three times as in example 1.
To determine the amidolytic activity of FSAP, at time t0 in each case 80 μl of the chromogenic substrate S-2288 (1.5 mmol/L; Chromogenix Instrumentation Laboratory S.p.A., Milano, Italy) in a 50:50 mixture of test buffer I and test buffer II (see example 1for test buffer I and 11) were put into the MTP wells and incubated at +37° C. in a photometer. After about 60 minutes, aprotinin was added in a final concentration of 2.95 KIU/ml or the respective monoclonal antibody (MAb) was added in a final concentration of about 60 μg/ml per reaction mixture. The change in absorption of the reaction mixtures was followed at a wavelength of 405 nm, and the maximum reaction rate vmax was determined (see example 1). […]
Three independent measurements were carried out on the sample of the non-carrier of the FSAP MR I variant (wild-type sample; WT). […] The averages (Av.) of vmax/vmax activity modulator (vmax/vmaxA) and the standard deviations relating to the population (SD) were calculated. […]

FSAP wild type [2] = biological target: T2, FSAP wild type (Homo sapiens, UniProt Q14520); experiment: Prourokinase-activating activity of FSAP with and without aprotinin (S-2444), wild-type plasma samples
T2 construct: found for a plasma sample of a non-carrier (wild type); from tissue
T2 sequence (Q14520 24-560): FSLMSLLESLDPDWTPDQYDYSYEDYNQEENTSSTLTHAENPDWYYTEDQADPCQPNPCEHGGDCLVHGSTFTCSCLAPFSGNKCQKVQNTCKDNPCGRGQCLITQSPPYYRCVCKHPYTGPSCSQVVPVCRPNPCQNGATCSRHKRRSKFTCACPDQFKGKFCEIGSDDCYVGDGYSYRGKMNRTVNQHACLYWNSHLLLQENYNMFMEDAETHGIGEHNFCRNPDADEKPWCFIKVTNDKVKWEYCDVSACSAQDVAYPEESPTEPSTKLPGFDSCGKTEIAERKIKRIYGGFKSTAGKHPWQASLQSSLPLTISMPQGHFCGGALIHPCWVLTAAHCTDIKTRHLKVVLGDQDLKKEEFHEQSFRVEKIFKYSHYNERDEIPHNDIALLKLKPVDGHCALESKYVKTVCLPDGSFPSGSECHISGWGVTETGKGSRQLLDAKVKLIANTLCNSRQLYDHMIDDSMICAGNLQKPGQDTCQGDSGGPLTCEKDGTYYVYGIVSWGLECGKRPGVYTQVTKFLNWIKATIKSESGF
Protocol: (§2) An anti-FSAP antibody produced via the hybridoma cell line DSM ACC2453 was used as solid phase-associated binding partner having affinity for FSAP. Polystyrene microtiter plates (MTPs) were used as solid phase for carrying out the heterogeneous detection method. Anti-FSAP antibodies in 50 mM NaHCO3, pH 8.2, were associated onto the polystyrene solid phase with a coating volume of 120 μl per well of the MTP and a coating concentration of 20 μg of antibody per ml at room temperature overnight. Unbound antibodies were removed by washing three times with 50 mM sodium phosphate-buffered isotonic NaCl solution, 0.02% Tween® 20, pH 6.5.
(§3) In each case 100 μl of a plasma sample to be determined were pipetted in a dilution of 1:80 in sample buffer (20 mM sodium citrate, pH 6.0, with 150 mM NaCl, 100 mM L-arginine monohydrochloride, 1% bovine serum albumin, 0.1% Tweene® 80, 100 I.U. of heparin/ml) into the wells. After incubation at +37° C. for one hour, unbound constituents were removed by washing three times with 50 mM sodium phosphate-buffered isotonic NaCl solution, 0.02% Tweene® 20, pH 6.5.
(§4) The change in absorption (OD) of the reaction mixtures was followed at a wavelength of 405 nm. A differentiation between carriers and non-carriers of the FSAP MR I variant is possible through the formation of a quotient between vmax of the reaction kinetics of a sample without added aprotinin (vmax0) and with added aprotinin (vmax aprotinin). The following applies thereto: • FSAP wild type vmax0/FSAP wild type vmax aprotinin>FSAP MR I vmax0/FSAP MR I vmax aprotinin.
(§5) The maximum slope of the time-conversion plots was determined by linear regression in a sufficiently linear region of the time-conversion plot and afforded the maximum reaction rate vmax of a reaction in mOD/min.

FSAP wild type [3] = biological target: T2, FSAP wild type; experiment: Change in amidolytic activity of FSAP (S-2288) on addition of activity modulator during the reaction, wild-type sample
Protocol: as §1
To determine the amidolytic activity of FSAP, at time t0 in each case 80 μl of the chromogenic substrate S-2288 (1.5 mmol/L; Chromogenix Instrumentation Laboratory S.p.A., Milano, Italy) in a 50:50 mixture of test buffer I and test buffer II (see example 1for test buffer I and 11) were put into the MTP wells and incubated at +37° C. in a photometer. After about 60 minutes, aprotinin was added in a final concentration of 2.95 KIU/ml or the respective monoclonal antibody (MAb) was added in a final concentration of about 60 μg/ml per reaction mixture. The change in absorption of the reaction mixtures was followed at a wavelength of 405 nm, and the maximum reaction rate vmax was determined (see example 1). In order to reduce evaporation effects during the relatively long incubation time, a layer of mineral oil was put on top.
Differentiation between carriers and non-carriers of the FSAP MR I variant is possible through forming a ratio, for example the quotient of the maximum reaction rate before addition of the differential activity modulator (vmax) and the maximum reaction rate after addition of the differential activity modulator (vmax aprotinin).
Three independent measurements were carried out on the sample of the non-carrier of the FSAP MR I variant (wild-type sample; WT). Six independent measurements were carried out on the sample of the heterozygous carrier of the FSAP MR I variant (MR I). The averages (Av.) of vmax/vmax activity modulator (vmax/vmaxA) and the standard deviations relating to the population (SD) were calculated. The negative control, i.e. addition of a corresponding volume of test buffer I and test buffer II in the ratio 50:50 without activity modulator afforded an Av. vmax/vmaxA of 0.81 +/− 0.12. […]

FSAP MR I variant [4] = biological target: T1, FSAP MR I variant; experiment: Prourokinase-activating activity of FSAP with and without aprotinin (S-2444), MR I carrier plasma samples
Protocol: as §2, §3, §4, §5

FSAP wild type [5] = biological target: T2, FSAP wild type; experiment: Amidolytic activity of FSAP for S-2288 with and without aprotinin, wild-type plasma samples
Protocol: as §1, with “1:50” for “1:15”, “with 50 mM sodium phosphate-buffered isotonic NaCl solution, 0.02% Tweene® 20, pH 6.5.” for “as in example 1.”
(§6) In order to reduce evaporation effects during the relatively long incubation time in the MTP, a layer of mineral oil was put on top.
as §4, with “nm, and the maximum reaction rate vmax was determined (see example 1). Differentiation” for “nm. A differentiation”, “ratio (quotient)” for “quotient”

FSAP MR I variant [6] = biological target: T1, FSAP MR I variant; experiment: Amidolytic activity of FSAP for S-2288 with and without aprotinin, MR I carrier plasma samples
Protocol: as §1, with “1:50” for “1:15”, “with 50 mM sodium phosphate-buffered isotonic NaCl solution, 0.02% Tweene® 20, pH 6.5.” for “as in example 1.”
as §6
as §4, with “nm, and the maximum reaction rate vmax was determined (see example 1). Differentiation” for “nm. A differentiation”, “ratio (quotient)” for “quotient”

[7] = average over WT samples, 0.055 KIU/ml aprotinin
[8] = without vs 0.055 KIU/ml aprotinin, WT samples, one value per sample
[9] = average over MR I samples, 0.055 KIU/ml aprotinin
[10] = without vs 0.055 KIU/ml aprotinin, MR I samples, one value per sample

inhibition of prourokinase-activating activity of FSAP, non-carrier sample versus heterozygous carrier sample (FSAP wild type [2]; FIGS. 1 and 2, 0.036 and 0.055 KIU/ml final aprotinin concentration): substantially more strongly
inhibition of amidolytic activity of FSAP, non-carrier sample versus heterozygous carrier sample (FSAP wild type [5]; FIGS. 3 and 4, 0.036 and 0.055 KIU/ml final aprotinin concentration): considerably more strongly
Substance: aprotinin
MRI Av. vmax/vmax A (FSAP MR I variant [1]): 12.36
vmax aprotinin (FSAP wild type [2]; 0.055 KIU/ml aprotinin, WT plasma samples 1:80, S-2444, one value per sample): 13.82 mOD/min and 12.09 mOD/min and 8.81 mOD/min and 11.84 mOD/min
Av. vmax0/vmax aprotinin (FSAP wild type [2]; [7]): 2.01
Av. vmax0 − vmax aprotinin (FSAP wild type [2]; [7]): 11.37 mOD/min
vmax0/vmax aprotinin (FSAP wild type [2]; [8]): 1.90 and 1.78 and 2.41 and 1.95
vmax0 − vmax aprotinin (FSAP wild type [2]; [8]): 12.42 mOD/min and 9.38 mOD/min and 12.44 mOD/min and 11.23 mOD/min
inhibition of FSAP amidolytic activity after addition of aprotinin in a single reaction mixture, non-carrier versus heterozygous carrier (FSAP wild type [3]; FIG. 5, aprotinin added at a reaction time of about one hour): inhibited more strongly in the sample of the non-carrier
WT/MRI quotient of Av. vmax/vmax A (FSAP wild type [3]; WT sample versus heterozygous MR I sample, aprotinin 2.95 KIU/ml, MAb about 60 μg/ml): 1.35
WT Av. vmax/vmax A (FSAP wild type [3]; vmax before/after modulator added at about 60 min, aprotinin 2.95 KIU/ml, MAb about 60 μg/ml, three measurements, negative control 0.81): 16.72
vmax aprotinin (FSAP MR I variant [4]; 0.055 KIU/ml aprotinin, MR I plasma samples 1:80, S-2444, one value per sample): 2.00 mOD/min and 1.84 mOD/min and 2.45 mOD/min
Av. vmax0/vmax aprotinin (FSAP MR I variant [4]; [9]): 1.43
Av. vmax0 − vmax aprotinin (FSAP MR I variant [4]; [9]): 0.90 mOD/min
vmax0/vmax aprotinin (FSAP MR I variant [4]; [10]): 1.52 and 1.35 and 1.41
vmax0 − vmax aprotinin (FSAP MR I variant [4]; [10]): 1.04 mOD/min and 0.64 mOD/min and 1.01 mOD/min
vmax aprotinin (FSAP wild type [5]; 0.055 KIU/ml aprotinin, WT plasma samples 1:50, S-2288, one value per sample): 6.90 mOD/min and 9.57 mOD/min and 7.52 mOD/min
Av. vmax0/vmax aprotinin (FSAP wild type [5]; [7]): 1.48
Av. vmax0 − vmax aprotinin (FSAP wild type [5]; [7]): 3.81 mOD/min
vmax0/vmax aprotinin (FSAP wild type [5]; [8]): 1.45 and 1.47 and 1.51
vmax0 − vmax aprotinin (FSAP wild type [5]; [8]): 3.09 mOD/min and 4.49 mOD/min and 3.86 mOD/min
vmax aprotinin (FSAP MR I variant [6]; 0.055 KIU/ml aprotinin, MR I plasma samples 1:50, S-2288, one value per sample): 1.22 mOD/min and 0.94 mOD/min and 1.87 mOD/min
Av. vmax0/vmax aprotinin (FSAP MR I variant [6]; [9]): 1.04
Av. vmax0 − vmax aprotinin (FSAP MR I variant [6]; [9]): 0.07 mOD/min
vmax0/vmax aprotinin (FSAP MR I variant [6]; [10]): 1.02 and 1.03 and 1.08
